# From publication PMC4914113, “Another look at the mechanism involving trimeric dUTPases in Staphylococcus aureus pathogenicity island induction involves novel players in the party” (Nucleic Acids Research, 2016)
# pKd: −log10 of the molar value.
# Assays:
# [1] = biological target: Dut80α D81A D110C S168C (Staphylococcus aureus phage 80α); test: BLI; as a1 but non-reducing buffer (400 mM NaCl, 75 mM HEPES pH 7.5, 5 mM MgCl2); no nucleotide; 1:1 model
# [2] = biological target: Dut80α^G164S (Staphylococcus aureus phage 80α); test: BLI; as a1, buffer STL supplemented with 0.5 mM dUPNPP (baselines and dissociation without nucleotide); 1:1 model
substance,measurement,setting,value
Stl repressor from SaPIbov1 (natural protein),pKd,[1],8.22
same,koff,[1],0.00085 s⁻¹
same,kon,[1],140000 M⁻¹ s⁻¹
same,pKd,[2],< 6.00
